Test results from PMC4884500 (DNA repair, 2016).

T1: Full-length MmRAD51D (yeast two-hybrid fusion) (mouse, UniProt O55230 1-329)
T1 sequence (looked up): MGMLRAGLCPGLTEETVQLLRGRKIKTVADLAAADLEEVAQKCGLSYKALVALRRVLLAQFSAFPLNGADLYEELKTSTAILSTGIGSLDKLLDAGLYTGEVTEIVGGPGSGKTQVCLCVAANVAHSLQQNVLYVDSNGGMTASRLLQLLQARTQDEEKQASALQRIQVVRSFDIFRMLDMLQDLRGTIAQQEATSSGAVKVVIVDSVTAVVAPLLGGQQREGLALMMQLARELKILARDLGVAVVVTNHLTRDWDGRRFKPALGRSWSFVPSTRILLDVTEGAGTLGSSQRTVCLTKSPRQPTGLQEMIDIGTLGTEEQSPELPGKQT

B1: RNF138 (yeast two-hybrid fusion) (natural protein, mouse, UniProt Q9CQE0-1 1-245, looked up)
chain: MSEELSAATSYTEDDFYCPVCQEVLKTPVRTAACQHVFCRKCFLTAMRESGIHCPLCRGSVTRRERACPERALDLENIMRRFSGSCRCCSKKIKFYRMRHHYKSCKKYQDEYGVSSVIPNFKISQDSVRSSNRSETSASDNTETYQEDTSSSGHPTFKCPLCQESNFTRQRLLDHCNSNHLFQIVPVTCPICVSLPWGDPSQITRNFVSHLNQRHQFDYGEFVNLQLDEETQYQTAVEESFQVNM

How the values were obtained:
[1] = target: Full-length MmRAD51D (yeast two-hybrid fusion) (mouse) (UniProt O55230); assay: two-hybrid
[2] = target: T1, Full-length MmRAD51D (yeast two-hybrid …); assay: two-hybrid

| Molecule | fold decrease in the level of interaction against full-length RNF138 [1] | β-galactosidase level relative to the DBD-RAD51D:AD-RAD51C positive control [2] |
| --- | --- | --- |
| MmRnf138-Δ5 (RNF138 splice variant with a deletion of exon 5, yeast two-hybrid fusion) (natural protein) | 8 fold |  |
| MmRnf138-Δ7 (RNF138 splice variant with a deletion of exon 7, yeast two-hybrid fusion) (natural protein) | 3 fold |  |
| B1 |  | 79% |
